B1: human PTH(1-84) (protein, UniProt P01270 32-115, looked up)
Parathyroid hormone: SVSEIQLMHNLGKHLNSMERVEWLRKKLQDVHNFVALGAPLAPRDAGSQRPRKKEDNVLVESHEKSLGEADKADVNVLTKAKSQ
modifications: Parathyroid hormone

What was measured:
platelet count [1] = assay: Effectiveness of PTH derivative, daily administration to mouse (peripheral platelet count); type: in vivo; conditions: C57B1/6N mice, 200 μg/kg subcutaneous once a day for six days, 24 h after final administration; FIG. 3
Description: Ten-week old male C57B1/6N mice as purchased from Japan Charles River Co., Ltd. were used in the experiment.
Drug solutions to be administered were prepared basically from human PTH(1-84) and human PTH(1-34) by the same procedure as in Example 1 to give a drug concentration of 20 μg/mL.
Eighteen mice were divided into three groups, which were administered subcutaneously with the two drug solutions and a control (citrate buffer) for six days on a once-a-day basis in a volume of 10 mL/kg. […] The administration was initiated at 10 a.m.
After 24 h of the final administration, a blood sample was withdrawn from each mouse through the orbital vein. Peripheral corpuscle counts were obtained with an automatic corpuscle counter F-800 (TOA MEDICAL ELECTRONICS CO., LTD)

platelet count [2] = assay: Test for daily administration to mouse (peripheral platelet count); type: in vivo; conditions: C57B1/6N mice, subcutaneous once a day, FIG. 2
Description: Nine-week old male C57B1/6N mice as purchased from Japan Charles River Co., Ltd. were used in the experiment.
Drug solutions to be administered were prepared basically by the same procedure as in Example 1 to give drug concentrations of 5, 20 and 80 μg/mL.
The mice under test were divided into four groups, which were administered subcutaneously with the three drug solutions and a control (citrate buffer) once a day in a volume of 10 mL/kg. […] The administration was initiated at 10 a.m.
On days 5, 7 and 9 after the start of administration, five or six mice were picked up at random from each group of animals and blood samples were withdrawn through the orbital vein. The sampling of blood was timed to occur 24 h of the final administration. Separate blood samples were taken from untreated mice (five in number) to obtain the value for normal mouse. Peripheral corpuscle counts were obtained with an automatic corpuscle counter F-800(TOA MEDICAL ELECTRONICS CO., LTD.).

platelet count [3] = assay: Test for daily administration to rabbit (platelet count); type: in vivo; conditions: three rabbits, FIG. 4
Description: Six 12-15 week old male Japanese albino rabbits JW/CSK were used in the experiment. The animals were individually kept in aluminum rabbit bracket cages Rb-1 (350^w×500^d×350^h mm) in a vavarium in a specific pathogen-free environment under the following conditions: temperature, 24±2° C.; humidity, 50±10%; illumination, light turned on at 5:00 and turned off at 19:00; ventilation, 15 changes/hr. Each animal was supplied with 120 g of a radiation-sterilized feed for rabbits RM (purchased from Funahashi Farm) per day. The animals were also allowed to drink to tap water ad libitum from an automatic water feeder.
Human PTH(1-84) was administered in a volume of 2 mL/vial at a concentration of 200 μg/mL. A solvent was also supplied in a volume of 2 mL/vial. Both the drug and the control were stored at −135° C. until use.
PTH (200 μg/kg) was administered to the rabbits subcutaneously at the back of their neck for 13 consecutive days. The solvent was similarly administered in the same volume as the dose of a rh-PTH solution calculated from their body weight.
Blood samples (0.5 mL) were withdrawn from the rabbits through the lateral auricular vein before the administration and on days 2, 6, 9 and 13 during the administration period. […]

platelet counts = assay: Test for single-dose administration to mouse (peripheral platelet count); type: in vivo; conditions: C57B1/6N mice, single dose 10 μg/kg through the tail vein, 6 and 9 h after the administration; FIG. 1
Description: Nine-week old male C57B1/6N mice as purchased from Japan Charles River Co. Ltd. were used in the experiment.
Human PTH(1-84) was dissolved in a citrate buffer (pH 5; containing 0.05% of Tween 80) at final concentrations of 1, 0.2 and 0.04 ˜g/mL so as to prepare the drug solutions to be administered.
Each of the thus prepared drug solutions and a control (citrate buffer) was administered to 15 mice through the tail vein in a volume of 10 mL/kg. […] The administration was initiated at 10 a.m.
After 3, 6 and 9 hours of the administration, five mice were picked up at random from each group of animals and blood samples were withdrawn through the orbital vein. At 10 a.m. on the same day, separate blood samples were taken from untreated mice (four in number) to obtain the preadministration value. Peripheral corpuscle counts were obtained with an automatic corpuscle counter F-800 (TOA MEDICAL ELECTRONICS CO., LTD.)

[4] = system: BFU-E (precursor cells of erythrocytes); conditions: report by Meytes et al, J. Clin. Invest. Vol. 67, 1263-1269:1981; cited from earlier work
[5] = system: CFU-GM (precursor cells of granulocytes and macrophages); conditions: report by Meytes et al, J. Clin. Invest. Vol. 67, 1263-1269:1981; cited from earlier work

Row | Molecule | platelet increasing action compared with PTH(1-84) (platelet count [1]) | platelet count versus control, day 5 (platelet count [2]; 200 and 800 μg/kg groups only, day 5, 24 h after final administration) | platelet count versus control, day 7 (platelet count [2]; all treated groups (50, 200 and 800 μg/kg), day 7) | platelet count on day 13 (platelet count [3]; 200 μg/kg subcutaneous daily for 13 days, day 13) | platelet count relative to the initial value, increase from day 2 until day 6 (platelet count [3]; 200 μg/kg subcutaneous daily) | platelet counts versus control (platelet counts) | in vitro colony formation by BFU-E [4] | in vitro colony formation by CFU-GM [5]
1 | human PTH(1-34) (SVSEIQLMHNLGKHLNSMERVEWLRKKLQDVHNF; Parathyroid hormone; UniProt P01270 32-65, looked up, fragment) [PTH(134), partial peptide of PTH composed of 34 amino acids from the N terminus; purchased from Peptide Institute, Inc] | comparable platelet increasing action to PTH(1-84) | – | – | – | – | – | – | –
2 | B1 | – | tendency to increase | significantly higher in platelet count than the control | substantially returned to the initial level | two to four | significant increase in platelet counts over the control | interfered with | interfered with
